Laboratory results reported in paper PMC8008340 (Cell, 2021).

Molecular target: T1, WT RBD (Wuhan SARS-CoV-2 RBD) (Severe acute respiratory syndrome …, UniProt P0DTC2)
T1 construct: also called Wuhan RBD; native RBD
Assay: crystal structure
Conditions: both partners purified

B1: EY6A Fab (Fab, V domains shown)
VH: EVQLVESGGGVVQPGRSLRLSCAASAFTFSSYDMHWVRQAPGKGLEWVAVISYDGSNKYYADSVKGRFTISRDNSKNTLYLQMNSLRAEDTAVYYCAKDGGKLWVYYFDYWGQGTLVTVSS
VL: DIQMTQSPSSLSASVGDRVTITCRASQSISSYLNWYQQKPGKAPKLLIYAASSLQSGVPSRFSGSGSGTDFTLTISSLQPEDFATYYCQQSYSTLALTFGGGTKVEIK
  binding result: binds
